# Results: the supplement of paper PMC9112550, “Optimization of the antimicrobial peptide Bac7 by deep mutational scanning” (BMC Biology, 2022)
# Tested on: Escherichia coli TOP10
# Assay: shrunken log2 fold change of peptide-encoding DNA abundance (4.5 h post-induction vs induction); higher = less antimicrobial activity (less host growth inhibition)
# Conditions: time post-induction: 4.5 h; library: site-saturation at positions 5, 18, 19, 20
# 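Further: peptides expressed intracellularly from a pBAD plasmid library in pooled LB shake-flask culture, induced with 0.3% L-arabinose, DNA abundance read by NGS, three biological replicates, DESeq2 with apeglm shrinkage.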
row,Sequence,shrunken log2 fold change
1,RRIRHRPPRLPRPRPRPCENPRP,-0.0381
2,RRIRRRPPRLPRPRPRPDQKPRP,-0.0181
3,RRIRERPPRLPRPRPRPFRLPRP,-0.51
4,RRIRLRPPRLPRPRPRPRLYPRP,-0.26
5,RRIRIRPPRLPRPRPRPCDRPRP,-0.563
6,RRIRRRPPRLPRPRPRPPRWPRP,0.986
7,RRIRCRPPRLPRPRPRPKMEPRP,-0.204
8,RRIRLRPPRLPRPRPRPHWHPRP,-0.249
9,RRIRQRPPRLPRPRPRPMPTPRP,0.0311
10,RRIRGRPPRLPRPRPRPCTQPRP,0.196
11,RRIRDRPPRLPRPRPRPHFIPRP,-0.0922
12,RRIRTRPPRLPRPRPRPSSHPRP,-0.669
13,RRIRTRPPRLPRPRPRPNYAPRP,0.0202
14,RRIRHRPPRLPRPRPRPMNPPRP,-0.379
15,RRIRERPPRLPRPRPRPPITPRP,-0.351
16,RRIRCRPPRLPRPRPRPDYEPRP,-0.373
17,RRIRIRPPRLPRPRPRPIWFPRP,-0.164
18,RRIRQRPPRLPRPRPRPHFNPRP,-0.324
19,RRIRKRPPRLPRPRPRPVFNPRP,0.117
20,RRIRDRPPRLPRPRPRPPQPPRP,0.387
21,RRIRYRPPRLPRPRPRPTCWPRP,0.0987
22,RRIRKRPPRLPRPRPRPVPYPRP,-0.0558
23,RRIRARPPRLPRPRPRPKDFPRP,-0.0146
24,RRIRYRPPRLPRPRPRPDTVPRP,0.019
25,RRIRCRPPRLPRPRPRPNWGPRP,-0.0514

row,Sequence,shrunken log2 fold change
1,RRIRTRPPRLPRPRPRPEQCPRP,-0.01
2,RRIRWRPPRLPRPRPRPMGSPRP,-0.0192
3,RRIRFRPPRLPRPRPRPRPTPRP,0.732
4,RRIRCRPPRLPRPRPRPQASPRP,-0.000207
5,RRIRRRPPRLPRPRPRPNKWPRP,0.0315
6,RRIRIRPPRLPRPRPRPRHNPRP,-0.245
7,RRIRIRPPRLPRPRPRPDGAPRP,-0.237
8,RRIRYRPPRLPRPRPRPPMWPRP,0.53
9,RRIRERPPRLPRPRPRPQVKPRP,-0.2
10,RRIRMRPPRLPRPRPRPYQQPRP,-0.00196
11,RRIRCRPPRLPRPRPRPCPLPRP,-0.433
12,RRIRCRPPRLPRPRPRPWSAPRP,-0.308
13,RRIRQRPPRLPRPRPRPQFAPRP,-0.00983
14,RRIRNRPPRLPRPRPRPSRAPRP,0.121
15,RRIRARPPRLPRPRPRPEVNPRP,0.291
16,RRIRSRPPRLPRPRPRPMELPRP,-0.187
17,RRIRCRPPRLPRPRPRPDFFPRP,0.035
18,RRIRARPPRLPRPRPRPTRRPRP,1.1
19,RRIRCRPPRLPRPRPRPQNFPRP,-0.43
20,RRIRRRPPRLPRPRPRPSAFPRP,1.27
21,RRIRQRPPRLPRPRPRPARQPRP,0.182
22,RRIRWRPPRLPRPRPRPVCYPRP,0.028
23,RRIRCRPPRLPRPRPRPPTIPRP,-0.158
24,RRIRLRPPRLPRPRPRPKYSPRP,-0.622
25,RRIRPRPPRLPRPRPRPSITPRP,-0.401

row,Sequence,shrunken log2 fold change
1,RRIRGRPPRLPRPRPRPMEVPRP,-0.121
2,RRIRTRPPRLPRPRPRPHLSPRP,-0.0793
3,RRIRPRPPRLPRPRPRPYNMPRP,-1.44
4,RRIRTRPPRLPRPRPRPMLQPRP,0.00738
5,RRIRSRPPRLPRPRPRPDMMPRP,-0.36
6,RRIRSRPPRLPRPRPRPYMVPRP,-0.497
7,RRIRARPPRLPRPRPRPHTPPRP,0.152
8,RRIRSRPPRLPRPRPRPMYEPRP,0.0571
9,RRIRDRPPRLPRPRPRPTMYPRP,-0.107
10,RRIRVRPPRLPRPRPRPWAMPRP,-0.0382
11,RRIRFRPPRLPRPRPRPCETPRP,-0.00947
12,RRIRNRPPRLPRPRPRPIPDPRP,-0.0956
13,RRIRMRPPRLPRPRPRPKRTPRP,3.45
14,RRIRLRPPRLPRPRPRPKKHPRP,-0.154
15,RRIRGRPPRLPRPRPRPCNSPRP,-0.0377
16,RRIRLRPPRLPRPRPRPKQYPRP,-0.661
17,RRIRWRPPRLPRPRPRPQIMPRP,-0.0336
18,RRIRFRPPRLPRPRPRPGQEPRP,-0.0664
19,RRIRYRPPRLPRPRPRPIKHPRP,-0.693
20,RRIRQRPPRLPRPRPRPSQQPRP,0.0129
21,RRIRLRPPRLPRPRPRPFVRPRP,0.00108
22,RRIRCRPPRLPRPRPRPWETPRP,0.323
23,RRIRLRPPRLPRPRPRPRETPRP,-0.0213
24,RRIRKRPPRLPRPRPRPSIGPRP,-0.0755
25,RRIRLRPPRLPRPRPRPIGDPRP,-0.118

row,Sequence,shrunken log2 fold change
1,RRIRMRPPRLPRPRPRPCRLPRP,0.0956
2,RRIRARPPRLPRPRPRPHSAPRP,-0.0202
3,RRIRDRPPRLPRPRPRPFVWPRP,0.525
4,RRIRARPPRLPRPRPRPTTLPRP,0.067
5,RRIRTRPPRLPRPRPRPMPAPRP,0.102
6,RRIRARPPRLPRPRPRPVLVPRP,0.0133
7,RRIRIRPPRLPRPRPRPPLRPRP,0.0855
8,RRIRPRPPRLPRPRPRPKQQPRP,0.214
9,RRIRGRPPRLPRPRPRPIAFPRP,0.8
10,RRIRSRPPRLPRPRPRPMYIPRP,-0.354
11,RRIRSRPPRLPRPRPRPTACPRP,0.249
12,RRIRHRPPRLPRPRPRPDWMPRP,-0.222
13,RRIRRRPPRLPRPRPRPNKCPRP,-0.634
14,RRIRARPPRLPRPRPRPRWDPRP,0.768
15,RRIRDRPPRLPRPRPRPFWRPRP,0.0187
16,RRIRVRPPRLPRPRPRPKRWPRP,0.706
17,RRIRARPPRLPRPRPRPGQQPRP,0.209
18,RRIRPRPPRLPRPRPRPHSPPRP,-0.0589
19,RRIRTRPPRLPRPRPRPKLGPRP,0.106
20,RRIRDRPPRLPRPRPRPHVMPRP,-0.0796
21,RRIRPRPPRLPRPRPRPPTCPRP,0.051
22,RRIRIRPPRLPRPRPRPCQPPRP,-0.378
23,RRIRHRPPRLPRPRPRPMTRPRP,-0.0247
24,RRIRDRPPRLPRPRPRPATKPRP,0.318
25,RRIRKRPPRLPRPRPRPGQTPRP,0.611

row,Sequence,shrunken log2 fold change
1,RRIRNRPPRLPRPRPRPVAYPRP,0.0201
2,RRIRPRPPRLPRPRPRPSIWPRP,-0.11
3,RRIRMRPPRLPRPRPRPIYYPRP,-0.51
4,RRIRWRPPRLPRPRPRPHEGPRP,-0.102
5,RRIRSRPPRLPRPRPRPWAQPRP,-0.0414
6,RRIRIRPPRLPRPRPRPIPNPRP,-0.0731
7,RRIRERPPRLPRPRPRPSLTPRP,-0.699
8,RRIRARPPRLPRPRPRPGWLPRP,0.285
9,RRIRRRPPRLPRPRPRPWNGPRP,-0.346
10,RRIRQRPPRLPRPRPRPDCWPRP,-0.0539
11,RRIRFRPPRLPRPRPRPETNPRP,0.127
12,RRIRFRPPRLPRPRPRPSLEPRP,-0.0776
13,RRIRFRPPRLPRPRPRPHLHPRP,-0.511
14,RRIRKRPPRLPRPRPRPASIPRP,0.0215
15,RRIRKRPPRLPRPRPRPYSDPRP,0.0075
16,RRIRMRPPRLPRPRPRPPNAPRP,1.11
17,RRIRARPPRLPRPRPRPSSSPRP,0.185
18,RRIRVRPPRLPRPRPRPQEQPRP,0.0925
19,RRIRIRPPRLPRPRPRPWTPPRP,-0.179
20,RRIRTRPPRLPRPRPRPIMWPRP,0.0465
21,RRIRRRPPRLPRPRPRPHLCPRP,0.189
22,RRIRFRPPRLPRPRPRPWLGPRP,0.0212
23,RRIRQRPPRLPRPRPRPCTHPRP,-0.502
24,RRIRLRPPRLPRPRPRPEEPPRP,0.0426
25,RRIRYRPPRLPRPRPRPVNKPRP,-0.0557

row,Sequence,shrunken log2 fold change
1,RRIRPRPPRLPRPRPRPLPVPRP,-0.4
2,RRIRGRPPRLPRPRPRPWCMPRP,0.13
3,RRIRRRPPRLPRPRPRPALSPRP,0.528
4,RRIRARPPRLPRPRPRPWIWPRP,0.111
5,RRIRPRPPRLPRPRPRPSDVPRP,-0.249
6,RRIRIRPPRLPRPRPRPWPTPRP,0.331
7,RRIRFRPPRLPRPRPRPMNHPRP,-0.327
8,RRIRTRPPRLPRPRPRPRVRPRP,2.2
9,RRIRRRPPRLPRPRPRPIRWPRP,0.0197
10,RRIRGRPPRLPRPRPRPLWLPRP,0.574
11,RRIRNRPPRLPRPRPRPPATPRP,0.615
12,RRIRPRPPRLPRPRPRPDMQPRP,-0.21
13,RRIRYRPPRLPRPRPRPRTSPRP,-0.169
14,RRIRCRPPRLPRPRPRPRCMPRP,-0.143
15,RRIRRRPPRLPRPRPRPKTNPRP,0.221
16,RRIRDRPPRLPRPRPRPWQIPRP,0.0319
17,RRIRYRPPRLPRPRPRPVHKPRP,-0.564
18,RRIRSRPPRLPRPRPRPWDKPRP,-0.252
19,RRIRCRPPRLPRPRPRPEYNPRP,-0.243
20,RRIRNRPPRLPRPRPRPDFMPRP,-0.138
21,RRIRLRPPRLPRPRPRPLCNPRP,-0.453
22,RRIRERPPRLPRPRPRPSPQPRP,-0.0688
23,RRIRKRPPRLPRPRPRPQRQPRP,0.265
24,RRIRIRPPRLPRPRPRPNRHPRP,-0.0899
25,RRIRCRPPRLPRPRPRPVVPPRP,-0.168
